Data from PMC12097149.

Tests used:
[1] = target: mouse CARMIL2 Q538E (untagged, CARMIL2^QE) (mouse); experiment: co-IP; Immunoprecipitation with anti-CARMIL2 (EM-53) from lysates of short-term expanded mouse CD8+ (OT-I) and CD4+ T cells (Carmil2^QE, Carmil2^QE Cd28-/-), immunoblot with anti-CARMIL2 and anti-CARD11; cells untreated or treated with pervanadate for 2 and 5 min at 37°C
[2] = target: mouse CARMIL2 Q538E tagged with a Twin-Strep-tag at the N terminus (CARMIL2^QE-OST) (mouse); experiment: affinity purification with mass spectrometry; OST-tagged CARMIL2 purified on Strep-Tactin Sepharose beads from lysates of short-term expanded mouse CD4+ T cells, untreated or treated with pervanadate for 2, 5 and 10 min; label-free quantitative MS, interaction stoichiometries

B1: mouse CARD11 (natural protein)
chain: MPGGGPAMDDYMETLKDEEEALWDNVECNRHMLSRYINPAKLTPYLRQCKVIDEQDEDEVLNAPMLPSKINRAGRLLDILHTKGQRGYVVFLESLEFYYPELYKLVTGKEPTRRFSTIVVEEGHEGLTHFLMNEVIKLQQQVKAKDLQRCELLAKSRQLEDEKKQLSLIRVELLTFQERYYKMKEERDSYNDELVKVKDDNYNLAMRYAQLSEEKNMAVMRSRDLQLEIDQLKHRLNKMEEECKLERNQSLKLKNDIENRPRKEQVLELERENEMLKTKIQELQSIIQAGKRSLPDSDKAILDILEHDRKEALEDRQELVNKIYNLQEEVRQAEELRDKYLEEKEDLELKCSTLGKDCEMYKHRMNTVMLQLEEVERERDQAFHSRDEAQTQYSQCLIEKDKYRKQIRELEEKNDEMRIEMVRREACIVNLESKLRRLSKDNGSLDQSLPRHLPATIISQNLGDTSPRTNGQEADDSSTSEESPEDSKYFLPYHPPRRRMNLKGIQLQRAKSPISMKQASEFQALMRTVKGHEEDFTDGSPSSSRSLPVTSSFSKMQPHRSRSSIMSITAEPPGNDSIVRRCKEDAPHRSTVEEDNDSCGFDALDLDDENHERYSFGPPSIHSSSSSHQSEGLDAYDLEQVNLMLRKFSLERPFRPSVTSGGHVRGTGPLVQHTTLNGDGLITQLTLLGGNARGSFIHSVKPGSLAERAGLREGHQLLLLEGCIRGERQSVPLDACTKEEARWTIQRCSGLITLHYKVNHEGYRKLLKEMEDGLITSGDSFYIRLNLNISSQLDACSMSLKCDDVVHVLDTMYQDRHEWLCARVDPFTDQDLDTGTIPSYSRAQQLLLVKLQRLVHRGNREEADSAHHTLRSLRNTLQPEEMLSTSDPRVSPRLSRASFFFGQLLQFVSRSENKYKRMNSNERVRIISGSPLGSLSRSSLDATKLLTEKHEELDPENELSRNLTLIPYSLVRAFHCERRRPVLFTPTMLAKTLVQKLLNSGGAMEFTICKSDIVTRDEFLRKQKTETIIYSREKNPNTFECIVPANIEAVAAKNKHCLLEAGIGCVRDLIKCKVYPIVLLIRVSEKNIKRFRKLLPRPETEEEFLRVCRLKEKELEALPCLYATVEAEMWSSVEELLRVLKDKIVEEQRKTIWVDEDQL
Q: Which fold lower level of complexes in unstimulated Carmil2^QE Cd28-/- CD4+ T cells than in unstimulated Carmil2^QE CD4+ T cells [1] does the source give for B1 here?
A: Its fold lower level of complexes in unstimulated Carmil2^QE Cd28-/- CD4+ T cells than in unstimulated Carmil2^QE CD4+ T cells is 2 fold.

Q: What about the fold increase of the interaction stoichiometry after T cell activation over that in resting cells [2] of the same binder?
A: The fold increase of the interaction stoichiometry after T cell activation over that in resting cells was 7 fold.

Q: And the percent of the available CARMIL2^QE-OST molecules complexed to CARD11 after 2 min of activation [2]?
A: The percent of the available CARMIL2^QE-OST molecules complexed to CARD11 after 2 min of activation was 12%.
